Measurements from US20230312709A1.

Biological target: human platelets (CD61 APC-positive gate P1)
Experiment: flow cytometry on diluted human whole blood, platelets gated as CD61 APC-positive (P1), PE goat anti-human IgG Fc secondary [panel hIgG4 iso : P1]

## hIgG4-isotype control (antibody)
  V2R (% of CD61-positive P1 events right of the PE gate): 0.11%
